Data on three molecules can be found in paper PMC8589032 (Journal of molecular biology, 2018).

Assay [1] concerns the target T1, ubiquitin (UniProt P0CG48 1-76). As to the kind of experiment: ITC. A general note: Isothermal titration calorimetry measures the heat released or taken up as one component is titrated into another.
Assay [2] concerns the target T1, ubiquitin. Kind of assay: NMR titration.

By Kd is commonly meant the equilibrium constant for the complex coming apart. The low end stands for tighter binding, the high end for weaker binding.

In turn, ESNSDAGINLIALPAFSQVDPEVFAALPAELQRELKAAYDQRQ (domain or fragment, human, UniProt Q9UBZ9-1 998-1040, looked up) [REV1 UBM2 (residues E998 to Q1040)] gave a dissociation constant (Kd) in assay [1] of 14.9 ± 3 µM.

B1: REV1 UBM1-UBM2 (C958S C977A) (domain or fragment, human, UniProt Q9UBZ9-1 933-1040, looked up)
chain: PSPSQLDQSVLEALPPDLREQVEQVSAVQQAESHGDKKKEPVNGANTGILPQPVGTVLLQIPEPQESNSDAGINLIALPAFSQVDPEVFAALPAELQRELKAAYDQRQ
Consider B1, for which, in assay [1], the equilibrium dissociation constant (Kd) came out at 18.7 ± 1.6 µM.

B2: REV1 UBM1-UBM2 (residues 933-1040, wild-type) (domain or fragment, human, UniProt Q9UBZ9-1 933-1040, looked up)
chain: PSPSQLDQSVLEALPPDLREQVEQVCAVQQAESHGDKKKEPVNGCNTGILPQPVGTVLLQIPEPQESNSDAGINLIALPAFSQVDPEVFAALPAELQRELKAAYDQRQ
For the molecule B2, the binding result in assay [2] is “binds”.
